Publication PMC10136361, “Inhibition Analysis and High-Resolution Crystal Structure of Mus musculus Glutathione Transferase P1-1” (Biomolecules, 2023)

Biological target: the molecule itself
Experiment: crystal structure; co-crystallised with 2.5 mM Nb-GSH, hanging drop vapor diffusion, 0.1 M Tris-HCl pH 8.0, PEG 6000 20% (w/v), 0.2 M calcium chloride; data to 1.28 Å at 100 K; two molecules in the asymmetric unit

B1: Mus musculus glutathione transferase P1-1 (enzyme, UniProt P19157 1-210, looked up)
chain: MPPYTIVYFPVRGRCEAMRMLLADQGQSWKEEVVTIDTWMQGLLKPTCLYGQLPKFEDGDLTLYQSNAILRHLGRSLGLYGKNQREAAQMDMVNDGVEDLRGKYVTLIYTNYENGKNDYVKALPGHLKPFETLLSQNQGGKAFIVGDQISFADYNLLDLLLIHQVLAPGCLDNFPLLSAYVARLSARPKIKAFLSSPEHVNRPINGNGKQ
notes: Glutathione S-transferase P1, Mus musculus, cloned from cDNA by PCR after GenBank BC061109.1; also called MmGSTP1-1; GSTP1-1 from Mus musculus
B1: binds.
